According to the supplement of paper PMC5998384:

Experiments:
HeLa Kyoto [1] = assay: melting temperature (median over replicates), in situ; higher = more thermally stable
HeLa Kyoto [2] = assay: solubility in G1/S (NP-40 vs SDS abundance) (log2 ratio); higher = more soluble; details: cell cycle stage: G1/S
HeLa Kyoto [3] = assay: solubility change mitosis vs G1/S (difference of NP-40 vs SDS log2 ratios) (log2 ratio difference); higher = more soluble in mitosis
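Wherever melting temperature (median over replicates), in situ is given: HeLa Kyoto cells synchronized by double thymidine or nocodazole block, proteins quantified by TMT10plex mass spectrometry, three independent biological replicates.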
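Wherever solubility change mitosis vs G1/S (difference of NP-40 vs SDS log2 ratios) is given: synchronized HeLa Kyoto cells (double thymidine block for G1/S, nocodazole release for mitosis), protein amounts in NP-40 versus SDS lysates quantified by mass spectrometry, three biological replicates.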
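Wherever solubility in G1/S (NP-40 vs SDS abundance) is given: HeLa Kyoto cells arrested at G1/S by double thymidine block, proteins quantified by TMT10plex mass spectrometry in mild NP-40 versus SDS extracts, three biological replicates.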

Sequence	melting temperature (HeLa Kyoto [1]; cell cycle stage: G1/S)	melting temperature (HeLa Kyoto [1]; cell cycle stage: mitosis)	solubility in G1/S (log2) (HeLa Kyoto [2])	solubility change mitosis (log2) (HeLa Kyoto [3])
MRKIDLCLSSEGSEVILATSSDEKHPPENIIDGNPETFWTTTGMFPQEFIICFHKHVRIERLVIQSYFVQTLKIEKSTSKEPVDFEQWIEKDLVHTEGQLQNEEIVAHDGSATYLRFIIVSAFDHFASVHSVSAEGTVVSNLSS [HSPB11]	53.3 °C	55.1 °C	0.137	-0.328
MRLRVRLLKRTWPLEVPETEPTLGHLRSHLRQSLLCTWGYSSNTRFTITLNYKDPLTGDEETLASYGIVSGDLICLILQDDIPAPNIPSSTDSEHSSLQNNEQPSLATSSNQTSMQDEQPSDSFQGQAAQSGVWNDDSMLGPSQNFEAESIQDNAHMAEGTGFYPSEPMLCSESVEGQVPHSLETLYQSADCSDANDALIVLIHLLMLESGYIPQGTEAKALSMPEKWKLSGVYKLQYMHPLCEGSSATLTCVPLGNLIVVNATLKINNEIRSVKRLQLLPESFICKEKLGENVANIYKDLQKLSRLFKDQLVYPLLAFTRQALNLPDVFGLVVLPLELKLRIFRLLDVRSVLSLSAVCRDLFTASNDPLLWRFLYLRDFRDNTVRVQDTDWKELYRKRHIQRKESPKGRFVMLLPSSTHTIPFYPNPLHPRPFPSSRLPPGIIGGEYDQRPTLPYVGDPISSLIPGPGETPSQFPPLRPRFDPVGPLPGPNPILPGRGGPNDRFPFRPSRGRPTDGRLSFM [FBXO7]	48.1 °C	49.7 °C	0.02	-0.126
MRPLLGLLLVFAGCTFALYLLSTRLPRGRRLGSTEEAGGRSLWFPSDLAELRELSEVLREYRKEHQAYVFLLFCGAYLYKQGFAIPGSSFLNVLAGALFGPWLGLLLCCVLTSVGATCCYLLSSIFGKQLVVSYFPDKVALLQRKVEENRNSLFFFLLFLRLFPMTPNWFLNLSAPILNIPIVQFFFSVLIGLIPYNFICVQTGSILSTLTSLDALFSWDTVFKLLAIAMVALIPGTLIKKFSQKHLQLNETSTANHIHSRKDT [TMEM41A]	55.1 °C	55.5 °C	0.0255	-0.205
MRRAAGMEDFSAEEEESWYDQQDLEQDLHLAAELGKTLLERNKELEGSLQQMYSTNEEQVQEIEYLTKQLDTLRHVNEQHAKVYEQLDLTARDLELTNHRLVLESKAAQQKIHGLTETIERLQAQVEELQAQVEQLRGLEQLRVLREKRERRRTIHTFPCLKELCTSPRCKDAFRLHSSSLELGPRPLEQENERLQTLVGALRSQVSQERQRKERAEREYTAVLQEYSELERQLCEMEACRLRVQELEAELLELQQMKQAKTYLLGPDDHLAEALLAPLTQAPEADDPQPGRGDDLGAQDGVSSPAASPGHVVRKSCSDTALNAIVAKDPASRHAGNLTLHANSVRKRGMSILREVDEQYHALLEKYEELLSKCRQHGAGVRHAGVQTSRPISRDSSWRDLRGGEEGQGEVKAGEKSLSQHVEAVDKRLEQSQPEYKALFKEIFSRIQKTKADINATKVKTHSSK [CDR2L]	52.5 °C		0.549	-0.204
MSATRAKKVKMATKSCPECDQQVPVACKSCPCGYIFISRKLLNAKHSEKSPPSTENKHEAKRRRTERVRREKINSTVNKDLENRKRSRSNSHSDHIRRGRGRPKSASAKKHEEEREKQEKEIDIYANLSDEKAFVFSVALAEINRKIINQRLIL [C16ORF87]		50.6 °C	0.019	0.198
MSCGNEFVETLKKIGYPKADNLNGEDFDWLFEGVEDESFLKWFCGNVNEQNVLSERELEAFSILQKSGKPILEGAALDEALKTCKTSDLKTPRLDDKELEKLEDEVQTLLKLKNLKIQRRNKCQLMASVTSHKSLRLNAKEEEATKKLKQSQGILNAMITKISNELQALTDEVTQLMMFFRHSNLGQGTNPLVFLSQFSLEKYLSQEEQSTAALTLYTKKQFFQGIHEVVESSNEDNFQLLDIQTPSICDNQEILEERRLEMARLQLAYICAQHQLIHLKASNSSMKSSIKWAEESLHSLTSKAVDKENLDAKISSLTSEIMKLEKEVTQIKDRSLPAVVRENAQLLNMPVVKGDFDLQIAKQDYYTARQELVLNQLIKQKASFELLQLSYEIELRKHRDIYRQLENLVQELSQSNMMLYKQLEMLTDPSVSQQINPRNTIDTKDYSTHRLYQVLEGENKKKELFLTHGNLEEVAEKLKQNISLVQDQLAVSAQEHSFFLSKRNKDVDMLCDTLYQGGNQLLLSDQELTEQFHKVESQLNKLNHLLTDILADVKTKRKTLANNKLHQMEREFYVYFLKDEDYLKDIVENLETQSKIKAVSLED [HAUS3]	48.6 °C	49.8 °C	0.0967	0.224
